Test results taken from patent publication US20180118802A1.

Legend:
LRP2 CR89 (human) = LRP2 CR89 (human) (UniProt P98164); assay: solid-phase binding assay, CR protein coated, anti-RAP detection
8D6 CR12 (human) = 8D6 CR12 (human) (UniProt Q9NPF0); assay: solid-phase binding assay (FIG. 10)
[1] = biological target: CR pair used to test the MatRAP1 truncations (not named); assay: solid-phase binding assay of truncated variants (FIG. 9)

LRP2 CR89 (human), sequence (P98164 1025-1102): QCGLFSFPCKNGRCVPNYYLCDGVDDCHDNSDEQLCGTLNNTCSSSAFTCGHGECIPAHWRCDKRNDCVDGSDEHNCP
8D6 CR12 (human), sequence (Q9NPF0 other isoform, or with tags, fused parts or gaps): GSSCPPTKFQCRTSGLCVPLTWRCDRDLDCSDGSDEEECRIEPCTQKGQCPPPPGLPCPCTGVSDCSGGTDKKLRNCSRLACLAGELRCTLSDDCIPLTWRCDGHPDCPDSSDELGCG
MatRAP1 N-42, sequence (P30533 other isoform, or with tags, fused parts or gaps): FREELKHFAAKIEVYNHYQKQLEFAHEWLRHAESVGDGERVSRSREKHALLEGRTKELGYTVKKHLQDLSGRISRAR

Work on “MegaRAP1 d3 Y249H (from UniProt P30533 235-353) (ligand)” yielded a % max (LRP2 CR89 (human)) of 35%.

Substance “320RAP1 truncated form (identical truncations, amino acids 243-313) (from UniProt P30533 277-347) (ligand)” has a fold improvement in affinity against the full-length variant (8D6 CR12 (human)) of 3.5 fold.

For “MatRAP1 N-42 (from UniProt P30533 277-353) (ligand)”, the fold increase in affinity over the full-length d3 variant [1] was 3 fold.

“MatRAP1 amino acids 243-313 (best truncated variant, 71 amino acids) (from UniProt P30533 277-347) (ligand)” was tested, and the fold increase in affinity over MatRAP1 N-42 [1] was 4 fold and the fold increase in affinity over the full-length d3 variant [1] was 12 fold.
